Test results: paper PMC5190049, “Immunogenicity of mammary tumor cells can be induced by shikonin via direct binding-interference with hnRNPA1” (Oncotarget, 2016)
Blank lines part the entries; values can stand above or below the molecule they belong to.

How the values were obtained:
hnRNPA1 (UP1) = biological target: T1, hnRNPA1 (UP1) (Homo sapiens, UniProt P09651); assay: isothermal titration calorimetry; format: binding
T1 construct: UP1, first 196 amino acids (N-terminal fragment with both RRMs); pET-42a, GST-His tag cut by Factor Xa; E. coli BL21(DE3)
T1 sequence (P09651 1-196): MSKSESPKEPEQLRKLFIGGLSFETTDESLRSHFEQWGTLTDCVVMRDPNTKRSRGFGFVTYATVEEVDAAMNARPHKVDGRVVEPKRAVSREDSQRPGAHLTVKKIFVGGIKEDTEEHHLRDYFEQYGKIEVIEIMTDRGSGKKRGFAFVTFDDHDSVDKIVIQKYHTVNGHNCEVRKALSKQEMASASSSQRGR

[1] = biological target: T2, hnRNPA1 N-terminal fragment (UP1) (human, UniProt P09651 1-196); assay: EMSA; shikonin 0-4 ug/test; EMSA: 20 mM HEPES, 50 mM KCl, 1 mM EDTA, 5 mM MgCl2, 0.1 mg/ml tRNA, 0.1 mg/ml BSA, 5 mM DTT, 10% glycerol, room temperature; ITC: 300 mM NaCl, 50 mM Tris-HCl; conditions: protein: recombinant; tags: GST-His fusion tag removed with Factor Xa; label: 5'-biotin
T2 sequence (P09651 1-196): as above

[2] = biological target: T2, hnRNPA1 N-terminal fragment (UP1); assay: EMSA; without shikonin; shikonin 0-4 ug/test disrupts binding; EMSA: 20 mM HEPES, 50 mM KCl, 1 mM EDTA, 5 mM MgCl2, 0.1 mg/ml tRNA, 0.1 mg/ml BSA, 5 mM DTT, 10% glycerol, room temperature; ITC: 300 mM NaCl, 50 mM Tris-HCl; conditions: protein: recombinant; tags: GST-His fusion tag removed with Factor Xa; label: 5'-biotin
[3] = biological target: T2, hnRNPA1 N-terminal fragment (UP1); assay: EMSA; without shikonin; shikonin 0-4 ug/test disrupts binding dose-dependently; EMSA: 20 mM HEPES, 50 mM KCl, 1 mM EDTA, 5 mM MgCl2, 0.1 mg/ml tRNA, 0.1 mg/ml BSA, 5 mM DTT, 10% glycerol, room temperature; ITC: 300 mM NaCl, 50 mM Tris-HCl; conditions: protein: recombinant; tags: GST-His fusion tag removed with Factor Xa; label: 5'-biotin
[4] = biological target: T2, hnRNPA1 N-terminal fragment (UP1); assay: ITC; N = 1.17 +/- 0.128; pH 7.0; 3 uM UP1, 60 uM RNA; Kd not given in text; EMSA: 20 mM HEPES, 50 mM KCl, 1 mM EDTA, 5 mM MgCl2, 0.1 mg/ml tRNA, 0.1 mg/ml BSA, 5 mM DTT, 10% glycerol, room temperature; ITC: 300 mM NaCl, 50 mM Tris-HCl; conditions: protein: recombinant; tags: GST-His fusion tag removed with Factor Xa

- Kd (hnRNPA1 (UP1)): 71.2 µM
Molecule: CC(C)=CC[C@@H](O)C1=CC(=O)c2c(O)ccc(O)c2C1=O [shikonin]

Molecule: AUUUCGGGAUUUCGGGAAUG (ssRNA) [M3 RNA (called M2 in Figure 2c legend)]
- binding result [1]: no binding

Molecule: AUUUAGGGAUUUAGGGAAUG (ssRNA) [WT RNA]
- binding result [2]: binds

Molecule: TTAGGGTTAGCG (ssDNA) [TR2]
- binding result [3]: binds

Molecule: AUUUAGGGAUUUAGGGAAUG (ssRNA) [WT RNA (ITC)]
- binding result [4]: binds
